Laboratory results reported in article doi:10.1101/768242 (bioRxiv, 2019).

Columns and labels:
GSK3β = GSK3β (human, UniProt P49841 1-420, phosphorylated on the activation loop Tyr216); experiment: BLI
[1] = molecular target: T1, phospho-Ser45-β-catenin (pS45-β-catenin) (human, UniProt P35222 1-781, phosphoserine at 45); experiment: BLI
T1 sequence: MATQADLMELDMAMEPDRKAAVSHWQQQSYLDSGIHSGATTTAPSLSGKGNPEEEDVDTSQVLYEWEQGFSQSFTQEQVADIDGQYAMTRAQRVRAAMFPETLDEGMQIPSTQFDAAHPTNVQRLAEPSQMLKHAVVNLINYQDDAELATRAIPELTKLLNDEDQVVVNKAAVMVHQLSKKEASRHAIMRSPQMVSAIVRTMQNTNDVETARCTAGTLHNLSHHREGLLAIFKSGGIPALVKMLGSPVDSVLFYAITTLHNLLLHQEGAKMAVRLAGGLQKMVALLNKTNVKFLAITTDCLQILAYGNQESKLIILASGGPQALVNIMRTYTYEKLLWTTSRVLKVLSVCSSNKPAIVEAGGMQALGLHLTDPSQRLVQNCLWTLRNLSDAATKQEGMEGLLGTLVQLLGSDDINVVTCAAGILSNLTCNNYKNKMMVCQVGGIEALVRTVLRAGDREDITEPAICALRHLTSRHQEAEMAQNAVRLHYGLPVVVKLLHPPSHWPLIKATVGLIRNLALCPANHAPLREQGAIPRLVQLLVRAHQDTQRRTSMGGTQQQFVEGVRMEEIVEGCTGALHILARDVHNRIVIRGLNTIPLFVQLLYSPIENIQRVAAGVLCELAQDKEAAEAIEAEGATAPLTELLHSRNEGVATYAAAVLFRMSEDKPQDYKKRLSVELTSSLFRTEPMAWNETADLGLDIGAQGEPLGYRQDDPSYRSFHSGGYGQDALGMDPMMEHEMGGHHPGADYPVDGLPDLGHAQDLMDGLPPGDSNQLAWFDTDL

Sequence of GSK3β (P49841 whole entry): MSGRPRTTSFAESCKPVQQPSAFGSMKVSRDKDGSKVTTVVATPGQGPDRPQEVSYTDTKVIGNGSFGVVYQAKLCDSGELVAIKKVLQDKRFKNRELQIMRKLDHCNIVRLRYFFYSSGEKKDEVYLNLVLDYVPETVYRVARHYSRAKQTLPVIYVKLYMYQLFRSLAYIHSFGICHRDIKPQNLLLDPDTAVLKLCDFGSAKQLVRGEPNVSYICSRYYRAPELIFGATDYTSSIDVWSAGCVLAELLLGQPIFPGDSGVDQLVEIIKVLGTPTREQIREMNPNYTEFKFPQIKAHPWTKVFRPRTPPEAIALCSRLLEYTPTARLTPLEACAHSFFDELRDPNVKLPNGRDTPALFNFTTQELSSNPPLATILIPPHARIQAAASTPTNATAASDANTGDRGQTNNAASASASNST

B1: Axin_(384-518) (miniAxin) (domain or fragment)
chain: EPQKFAEELIHRLEAVQRTREAEEKLEERLKRVRMEEEGEDGDPSSGPPGPCHKLPPAPAWHHFPPRCVDMGCAGLRDAHEENPESILDEHVQRVLRTPGRQSPGPGHRSPDSGHVAKMPVALGGAASGHGKHVP
B1 gave a Kd (GSK3β) of 16 nM and a Kd [1] of 4000 nM.
